Experiments:
PARylated PARP2 = PARylated PARP2 (human, UniProt Q9UGN5-2 1-570, poly(ADP-ribose) chains added by in vitro automodification; modified residues not stated); assay: ITC
ZnF(1-2-3)-BRCT PARP1 = ZnF(1-2-3)-BRCT PARP1 (Homo sapiens, UniProt P09874 1-494); assay: fluorescence polarization
PARP1 full length = PARP1 full length (Homo sapiens, UniProt P09874 1-1014); assay: fluorescence polarization
Chain of PARP1 full length (P09874 whole entry): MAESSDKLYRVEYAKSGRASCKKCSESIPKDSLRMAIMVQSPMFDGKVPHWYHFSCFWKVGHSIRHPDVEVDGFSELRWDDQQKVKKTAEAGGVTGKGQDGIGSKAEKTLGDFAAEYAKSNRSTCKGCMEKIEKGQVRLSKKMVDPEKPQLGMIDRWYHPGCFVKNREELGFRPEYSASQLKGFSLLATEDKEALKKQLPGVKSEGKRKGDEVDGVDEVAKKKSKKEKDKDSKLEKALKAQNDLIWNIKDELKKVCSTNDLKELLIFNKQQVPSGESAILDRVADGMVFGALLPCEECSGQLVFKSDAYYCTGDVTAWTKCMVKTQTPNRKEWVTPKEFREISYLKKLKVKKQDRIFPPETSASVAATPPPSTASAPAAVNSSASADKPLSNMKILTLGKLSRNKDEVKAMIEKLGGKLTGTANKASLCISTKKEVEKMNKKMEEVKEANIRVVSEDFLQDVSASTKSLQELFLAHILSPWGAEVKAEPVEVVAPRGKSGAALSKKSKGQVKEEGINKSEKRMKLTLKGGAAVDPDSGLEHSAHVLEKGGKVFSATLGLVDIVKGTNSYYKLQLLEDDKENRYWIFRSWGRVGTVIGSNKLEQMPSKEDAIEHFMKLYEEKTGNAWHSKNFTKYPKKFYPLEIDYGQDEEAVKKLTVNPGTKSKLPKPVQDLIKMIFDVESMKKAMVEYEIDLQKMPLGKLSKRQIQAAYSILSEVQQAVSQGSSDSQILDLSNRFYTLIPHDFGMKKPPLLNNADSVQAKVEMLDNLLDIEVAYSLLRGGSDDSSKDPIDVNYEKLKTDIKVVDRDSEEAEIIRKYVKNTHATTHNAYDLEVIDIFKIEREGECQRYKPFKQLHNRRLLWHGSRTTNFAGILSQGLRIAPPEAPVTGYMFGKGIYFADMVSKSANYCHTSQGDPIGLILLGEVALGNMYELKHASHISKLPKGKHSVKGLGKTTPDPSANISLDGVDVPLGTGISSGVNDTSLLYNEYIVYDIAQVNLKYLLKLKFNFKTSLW

Chain of ZnF(1-2-3)-BRCT PARP1 (P09874 1-494): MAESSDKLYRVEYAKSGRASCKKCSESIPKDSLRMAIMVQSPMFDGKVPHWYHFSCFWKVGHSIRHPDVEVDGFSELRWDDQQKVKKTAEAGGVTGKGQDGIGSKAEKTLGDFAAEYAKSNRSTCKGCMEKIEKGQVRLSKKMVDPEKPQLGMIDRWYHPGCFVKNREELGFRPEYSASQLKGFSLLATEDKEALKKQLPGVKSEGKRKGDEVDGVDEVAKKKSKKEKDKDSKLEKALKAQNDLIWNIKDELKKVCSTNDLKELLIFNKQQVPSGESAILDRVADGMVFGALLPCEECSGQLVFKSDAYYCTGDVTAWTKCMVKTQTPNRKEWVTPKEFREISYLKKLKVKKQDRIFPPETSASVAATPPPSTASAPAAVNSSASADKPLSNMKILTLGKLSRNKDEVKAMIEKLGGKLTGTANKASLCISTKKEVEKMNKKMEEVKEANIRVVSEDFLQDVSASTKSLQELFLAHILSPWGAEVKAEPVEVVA

Row | Kd (PARylated PARP2) | Molecule | Kd (ZnF(1-2-3)-BRCT PARP1) | Kd (PARP1 full length)
1 | 3000 nM | WGR domain of PARP1 (domain or fragment) |  | 
2 | 2000 nM | ZnF3 domain of PARP1 (domain or fragment) |  | 
3 | 2000 nM | BRCT domain of PARP1 (from UniProt P09874 385-476) (domain or fragment) |  | 

The remaining lines, values behind:

Row | Molecule | Kd (PARylated PARP2) | Kd (ZnF(1-2-3)-BRCT PARP1) | Kd (PARP1 full length)
4 | DSB DNA (5-FAM labelled) (dsDNA) DNA 1: GCCTACCGGTTCGAATGGCAGC DNA 2: GCTGCCATTCGAACCGGTAGGC |  | ~88 nM | ~15 nM
5 | ZnF3-BRCT-WGR of PARP1 (domain or fragment) VDEVAKKKSKKEKDKDSKLEKALKAQNDLIWNIKDELKKVCSTNDLKELLIFNKQQVPSGESAILDRVADGMVFGALLPCEECSGQLVFKSDAYYCTGDVTAWTKCMVKTQTPNRKEWVTPKEFREISYLKKLKVKKQDRIFPPETSASVAATPPPSTASAPAAVNSSASADKPLSNMKILTLGKLSRNKDEVKAMIEKLGGKLTGTANKASLCISTKKEVEKMNKKMEEVKEANIRVVSEDFLQDVSASTKSLQELFLAHILSPWGAEVKAEPVEVVAPRGKSGAALSKKSKGQVKEEGINKSEKRMKLTLKGGAAVDPDSGLEHSAHVLEKGGKVFSATLGLVDIVKGTNSYYKLQLLEDDKENRYWIFRSWGRVGTVIGSNKLEQMPSKEDAIEHFMKLYEEKTGNAWHSKNFTKYPKKFYPLEIDYGQDEEAVKKLTVNPGT | 40 nM |  | 
6 | GCTGGCTTCGTAAGAAGCCAGCTCGCGGTCAGCTTGCTGACCGCG (structured_DNA, 5'-phosphate (printed for unlabelled oligo)) [SSB DNA dumbbell 45-mer (5-FAM labelled)] |  | ~70 nM | ~64 nM

Reference: doi:10.1101/2021.12.21.473685 (bioRxiv, 2021)
